Assay results published in article PMC4615246 (Nucleus, 2015).

T1: LacI-CFP-Nup50 (human, UniProt Q9UKX7 1-468)
T1 sequence: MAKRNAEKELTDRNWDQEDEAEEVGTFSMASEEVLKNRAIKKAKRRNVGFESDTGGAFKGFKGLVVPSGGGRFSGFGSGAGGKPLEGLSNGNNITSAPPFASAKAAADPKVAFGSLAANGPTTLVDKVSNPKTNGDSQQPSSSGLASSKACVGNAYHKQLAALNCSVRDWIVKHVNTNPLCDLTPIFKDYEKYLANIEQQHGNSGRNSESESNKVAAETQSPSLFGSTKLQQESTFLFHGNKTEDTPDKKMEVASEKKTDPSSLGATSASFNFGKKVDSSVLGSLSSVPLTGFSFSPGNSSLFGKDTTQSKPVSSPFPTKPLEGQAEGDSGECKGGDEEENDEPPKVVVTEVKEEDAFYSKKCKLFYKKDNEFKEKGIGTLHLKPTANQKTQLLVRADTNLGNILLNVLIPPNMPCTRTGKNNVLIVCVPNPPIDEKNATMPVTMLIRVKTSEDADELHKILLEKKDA

T2: LacI-CFP-Nup107 (human, UniProt P57740 1-925)
T2 sequence: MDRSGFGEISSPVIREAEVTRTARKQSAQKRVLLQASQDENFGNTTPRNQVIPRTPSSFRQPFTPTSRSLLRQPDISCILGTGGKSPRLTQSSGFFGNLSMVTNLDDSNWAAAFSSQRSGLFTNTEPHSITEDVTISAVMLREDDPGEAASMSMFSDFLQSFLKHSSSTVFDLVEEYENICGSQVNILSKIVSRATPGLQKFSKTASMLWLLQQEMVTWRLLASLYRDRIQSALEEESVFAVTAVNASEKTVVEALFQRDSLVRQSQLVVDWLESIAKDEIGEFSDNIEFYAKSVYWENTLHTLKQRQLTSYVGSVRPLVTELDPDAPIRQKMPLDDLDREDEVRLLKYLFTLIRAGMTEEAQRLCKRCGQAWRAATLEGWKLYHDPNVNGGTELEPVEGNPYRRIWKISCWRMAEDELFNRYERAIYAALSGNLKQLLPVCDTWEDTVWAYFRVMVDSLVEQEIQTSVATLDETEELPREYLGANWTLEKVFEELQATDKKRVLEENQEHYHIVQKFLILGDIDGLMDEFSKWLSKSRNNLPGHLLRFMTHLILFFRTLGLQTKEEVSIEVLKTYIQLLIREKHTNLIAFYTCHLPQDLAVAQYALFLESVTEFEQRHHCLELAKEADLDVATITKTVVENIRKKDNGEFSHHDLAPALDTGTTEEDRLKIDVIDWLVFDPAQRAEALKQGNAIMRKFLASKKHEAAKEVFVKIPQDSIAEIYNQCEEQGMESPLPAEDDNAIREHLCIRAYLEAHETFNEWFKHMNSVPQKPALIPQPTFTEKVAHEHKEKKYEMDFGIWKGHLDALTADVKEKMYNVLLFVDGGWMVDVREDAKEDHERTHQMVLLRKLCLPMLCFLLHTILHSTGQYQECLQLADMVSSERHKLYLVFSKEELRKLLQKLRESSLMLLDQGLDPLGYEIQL

T3: LacI-CFP-Nup153 (human, UniProt P49790 1-1475)
T3 sequence: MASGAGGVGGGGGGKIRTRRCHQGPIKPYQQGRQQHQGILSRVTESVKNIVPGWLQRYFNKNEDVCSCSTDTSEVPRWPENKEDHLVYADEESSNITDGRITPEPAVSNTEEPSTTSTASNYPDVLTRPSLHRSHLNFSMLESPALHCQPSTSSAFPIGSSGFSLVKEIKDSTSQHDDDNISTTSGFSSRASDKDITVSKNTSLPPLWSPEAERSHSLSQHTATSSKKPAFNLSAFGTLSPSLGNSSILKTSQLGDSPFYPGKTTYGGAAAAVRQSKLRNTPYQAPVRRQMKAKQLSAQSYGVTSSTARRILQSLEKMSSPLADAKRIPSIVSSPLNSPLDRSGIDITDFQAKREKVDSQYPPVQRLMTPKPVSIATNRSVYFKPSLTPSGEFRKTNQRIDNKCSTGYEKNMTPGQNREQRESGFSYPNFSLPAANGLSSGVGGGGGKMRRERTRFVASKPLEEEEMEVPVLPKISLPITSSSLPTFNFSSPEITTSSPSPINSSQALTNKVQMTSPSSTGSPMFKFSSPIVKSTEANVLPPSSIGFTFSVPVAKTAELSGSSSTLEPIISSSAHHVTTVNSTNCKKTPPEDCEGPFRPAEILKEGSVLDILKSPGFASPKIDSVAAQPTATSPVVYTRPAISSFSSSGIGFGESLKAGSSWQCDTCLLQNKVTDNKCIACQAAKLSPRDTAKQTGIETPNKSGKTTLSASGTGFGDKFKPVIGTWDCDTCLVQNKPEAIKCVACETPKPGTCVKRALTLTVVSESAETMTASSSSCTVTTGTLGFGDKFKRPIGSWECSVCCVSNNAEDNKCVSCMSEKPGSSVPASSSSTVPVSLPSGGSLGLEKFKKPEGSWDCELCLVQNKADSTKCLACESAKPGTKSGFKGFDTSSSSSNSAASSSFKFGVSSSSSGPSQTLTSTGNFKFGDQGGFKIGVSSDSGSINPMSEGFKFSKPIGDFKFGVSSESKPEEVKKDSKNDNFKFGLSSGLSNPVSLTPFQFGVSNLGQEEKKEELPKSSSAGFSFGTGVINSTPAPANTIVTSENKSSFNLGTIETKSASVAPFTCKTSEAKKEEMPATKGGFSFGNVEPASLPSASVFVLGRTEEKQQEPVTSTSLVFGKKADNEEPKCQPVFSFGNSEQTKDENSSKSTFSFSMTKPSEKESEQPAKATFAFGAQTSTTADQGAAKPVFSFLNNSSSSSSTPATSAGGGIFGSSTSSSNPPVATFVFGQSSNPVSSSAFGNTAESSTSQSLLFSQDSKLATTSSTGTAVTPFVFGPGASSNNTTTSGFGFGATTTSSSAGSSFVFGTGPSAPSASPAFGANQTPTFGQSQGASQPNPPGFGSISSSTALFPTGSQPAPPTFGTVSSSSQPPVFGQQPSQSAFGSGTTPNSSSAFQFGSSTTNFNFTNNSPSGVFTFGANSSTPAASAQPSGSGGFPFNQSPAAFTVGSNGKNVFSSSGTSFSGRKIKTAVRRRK

T4: LacI-CFP-Nup133 (human, UniProt Q8WUM0 1-1156)
T4 sequence: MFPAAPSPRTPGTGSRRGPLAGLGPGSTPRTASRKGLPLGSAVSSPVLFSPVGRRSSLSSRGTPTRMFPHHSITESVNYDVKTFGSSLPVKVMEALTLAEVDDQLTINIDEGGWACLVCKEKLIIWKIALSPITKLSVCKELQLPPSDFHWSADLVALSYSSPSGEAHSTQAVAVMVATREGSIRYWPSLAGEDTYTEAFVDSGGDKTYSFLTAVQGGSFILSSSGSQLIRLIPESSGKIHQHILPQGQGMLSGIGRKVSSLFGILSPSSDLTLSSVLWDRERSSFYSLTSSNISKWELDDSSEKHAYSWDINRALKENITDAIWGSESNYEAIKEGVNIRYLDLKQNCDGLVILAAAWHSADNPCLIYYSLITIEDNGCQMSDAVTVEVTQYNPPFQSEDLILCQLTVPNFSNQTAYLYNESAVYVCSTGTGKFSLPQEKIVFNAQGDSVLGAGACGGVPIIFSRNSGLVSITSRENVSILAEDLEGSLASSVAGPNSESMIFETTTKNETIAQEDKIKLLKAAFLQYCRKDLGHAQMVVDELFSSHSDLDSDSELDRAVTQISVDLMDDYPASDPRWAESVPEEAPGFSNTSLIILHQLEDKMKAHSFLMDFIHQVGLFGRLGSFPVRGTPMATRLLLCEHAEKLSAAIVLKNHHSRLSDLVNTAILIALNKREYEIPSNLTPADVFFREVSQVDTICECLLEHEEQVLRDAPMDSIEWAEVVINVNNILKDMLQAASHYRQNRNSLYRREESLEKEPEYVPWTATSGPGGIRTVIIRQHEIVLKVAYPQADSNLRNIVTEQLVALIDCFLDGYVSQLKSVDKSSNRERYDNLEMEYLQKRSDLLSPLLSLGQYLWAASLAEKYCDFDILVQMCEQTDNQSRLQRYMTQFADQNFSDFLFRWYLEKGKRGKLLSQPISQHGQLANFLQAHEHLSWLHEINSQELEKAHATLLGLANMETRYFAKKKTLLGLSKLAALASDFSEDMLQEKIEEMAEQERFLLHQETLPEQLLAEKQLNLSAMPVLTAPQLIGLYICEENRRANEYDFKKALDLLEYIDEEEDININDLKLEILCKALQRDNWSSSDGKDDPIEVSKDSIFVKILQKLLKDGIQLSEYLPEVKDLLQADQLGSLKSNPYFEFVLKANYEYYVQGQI


Key:
Assay in all cases: LacI/LacO array recruitment in cells
[1] = molecular target: T1, LacI-CFP-Nup50
[2] = molecular target: LacI-CFP-Nup214 (human, UniProt P35658 1-2090)
Chain of LacI-CFP-Nup214 (P35658 whole entry): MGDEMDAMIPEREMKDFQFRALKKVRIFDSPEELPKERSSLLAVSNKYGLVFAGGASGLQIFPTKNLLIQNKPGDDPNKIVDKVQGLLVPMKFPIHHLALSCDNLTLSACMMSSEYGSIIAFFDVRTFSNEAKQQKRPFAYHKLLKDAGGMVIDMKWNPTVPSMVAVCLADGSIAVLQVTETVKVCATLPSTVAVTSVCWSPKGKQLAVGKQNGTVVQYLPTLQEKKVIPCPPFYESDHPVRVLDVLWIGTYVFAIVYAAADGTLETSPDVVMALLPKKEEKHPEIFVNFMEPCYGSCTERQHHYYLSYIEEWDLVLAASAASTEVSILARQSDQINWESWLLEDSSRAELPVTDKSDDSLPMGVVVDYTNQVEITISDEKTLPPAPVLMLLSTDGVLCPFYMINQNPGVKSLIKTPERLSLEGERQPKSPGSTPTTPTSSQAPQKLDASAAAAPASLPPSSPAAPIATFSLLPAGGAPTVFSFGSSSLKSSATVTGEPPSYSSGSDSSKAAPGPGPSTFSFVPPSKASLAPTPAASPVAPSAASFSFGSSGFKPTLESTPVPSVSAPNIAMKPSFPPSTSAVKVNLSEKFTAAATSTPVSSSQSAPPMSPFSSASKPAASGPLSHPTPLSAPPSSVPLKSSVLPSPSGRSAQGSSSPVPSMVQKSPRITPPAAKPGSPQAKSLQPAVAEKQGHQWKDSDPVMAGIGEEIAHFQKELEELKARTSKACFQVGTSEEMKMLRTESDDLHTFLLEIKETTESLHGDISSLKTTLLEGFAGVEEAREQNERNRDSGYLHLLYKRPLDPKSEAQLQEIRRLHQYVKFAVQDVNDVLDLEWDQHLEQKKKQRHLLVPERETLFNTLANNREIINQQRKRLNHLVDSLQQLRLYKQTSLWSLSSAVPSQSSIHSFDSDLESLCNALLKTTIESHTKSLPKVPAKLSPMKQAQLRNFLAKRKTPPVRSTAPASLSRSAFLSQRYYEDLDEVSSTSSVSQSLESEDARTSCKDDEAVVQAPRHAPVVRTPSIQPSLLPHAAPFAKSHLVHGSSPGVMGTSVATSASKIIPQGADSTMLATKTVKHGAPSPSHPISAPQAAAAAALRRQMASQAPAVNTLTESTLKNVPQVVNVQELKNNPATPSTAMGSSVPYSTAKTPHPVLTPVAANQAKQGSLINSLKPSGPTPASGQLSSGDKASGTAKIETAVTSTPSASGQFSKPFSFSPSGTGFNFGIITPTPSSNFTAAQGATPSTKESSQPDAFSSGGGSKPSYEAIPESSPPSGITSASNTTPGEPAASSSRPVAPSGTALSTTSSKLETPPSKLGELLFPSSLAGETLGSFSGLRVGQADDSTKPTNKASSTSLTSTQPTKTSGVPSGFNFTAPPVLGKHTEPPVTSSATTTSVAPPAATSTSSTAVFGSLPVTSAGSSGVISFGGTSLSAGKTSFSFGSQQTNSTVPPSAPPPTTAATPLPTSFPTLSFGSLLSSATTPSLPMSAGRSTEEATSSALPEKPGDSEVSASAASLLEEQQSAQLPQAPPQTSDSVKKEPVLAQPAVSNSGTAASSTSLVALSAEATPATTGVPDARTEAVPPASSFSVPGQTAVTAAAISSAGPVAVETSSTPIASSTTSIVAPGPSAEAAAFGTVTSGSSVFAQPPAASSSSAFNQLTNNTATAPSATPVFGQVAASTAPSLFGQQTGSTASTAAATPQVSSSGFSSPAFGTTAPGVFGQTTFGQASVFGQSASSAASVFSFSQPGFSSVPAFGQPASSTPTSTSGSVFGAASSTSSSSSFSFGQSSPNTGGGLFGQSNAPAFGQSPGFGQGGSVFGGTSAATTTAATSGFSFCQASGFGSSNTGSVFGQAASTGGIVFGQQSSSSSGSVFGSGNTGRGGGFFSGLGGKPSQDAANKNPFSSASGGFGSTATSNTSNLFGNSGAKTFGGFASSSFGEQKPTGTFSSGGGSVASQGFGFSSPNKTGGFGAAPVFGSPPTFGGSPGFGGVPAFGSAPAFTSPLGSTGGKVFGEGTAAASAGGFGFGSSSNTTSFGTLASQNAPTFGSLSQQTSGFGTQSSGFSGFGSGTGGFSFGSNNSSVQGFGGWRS

[3] = molecular target: T2, LacI-CFP-Nup107
[4] = molecular target: T3, LacI-CFP-Nup153
[5] = molecular target: T4, LacI-CFP-Nup133

percent of transfected cells showing colocalization [1] [%] | percent of transfected cells showing colocalization [2] [%] | percent of transfected cells showing colocalization [3] [%] | percent of transfected cells showing colocalization [4] [%] | percent of transfected cells showing colocalization [5] [%] | Binder
11 | 35 | 94 | 35 | – | Nup133 (endogenous) (natural protein) MFPAAPSPRTPGTGSRRGPLAGLGPGSTPRTASRKGLPLGSAVSSPVLFSPVGRRSSLSSRGTPTRMFPHHSITESVNYDVKTFGSSLPVKVMEALTLAEVDDQLTINIDEGGWACLVCKEKLIIWKIALSPITKLSVCKELQLPPSDFHWSADLVALSYSSPSGEAHSTQAVAVMVATREGSIRYWPSLAGEDTYTEAFVDSGGDKTYSFLTAVQGGSFILSSSGSQLIRLIPESSGKIHQHILPQGQGMLSGIGRKVSSLFGILSPSSDLTLSSVLWDRERSSFYSLTSSNISKWELDDSSEKHAYSWDINRALKENITDAIWGSESNYEAIKEGVNIRYLDLKQNCDGLVILAAAWHSADNPCLIYYSLITIEDNGCQMSDAVTVEVTQYNPPFQSEDLILCQLTVPNFSNQTAYLYNESAVYVCSTGTGKFSLPQEKIVFNAQGDSVLGAGACGGVPIIFSRNSGLVSITSRENVSILAEDLEGSLASSVAGPNSESMIFETTTKNETIAQEDKIKLLKAAFLQYCRKDLGHAQMVVDELFSSHSDLDSDSELDRAVTQISVDLMDDYPASDPRWAESVPEEAPGFSNTSLIILHQLEDKMKAHSFLMDFIHQVGLFGRLGSFPVRGTPMATRLLLCEHAEKLSAAIVLKNHHSRLSDLVNTAILIALNKREYEIPSNLTPADVFFREVSQVDTICECLLEHEEQVLRDAPMDSIEWAEVVINVNNILKDMLQAASHYRQNRNSLYRREESLEKEPEYVPWTATSGPGGIRTVIIRQHEIVLKVAYPQADSNLRNIVTEQLVALIDCFLDGYVSQLKSVDKSSNRERYDNLEMEYLQKRSDLLSPLLSLGQYLWAASLAEKYCDFDILVQMCEQTDNQSRLQRYMTQFADQNFSDFLFRWYLEKGKRGKLLSQPISQHGQLANFLQAHEHLSWLHEINSQELEKAHATLLGLANMETRYFAKKKTLLGLSKLAALASDFSEDMLQEKIEEMAEQERFLLHQETLPEQLLAEKQLNLSAMPVLTAPQLIGLYICEENRRANEYDFKKALDLLEYIDEEEDININDLKLEILCKALQRDNWSSSDGKDDPIEVSKDSIFVKILQKLLKDGIQLSEYLPEVKDLLQADQLGSLKSNPYFEFVLKANYEYYVQGQI
11 | 90 | – | 11 | 70 | Nup98 (endogenous) (natural protein) MFNKSFGTPFGGGTGGFGTTSTFGQNTGFGTTSGGAFGTSAFGSSNNTGGLFGNSQTKPGGLFGTSSFSQPATSTSTGFGFGTSTGTANTLFGTASTGTSLFSSQNNAFAQNKPTGFGNFGTSTSSGGLFGTTNTTSNPFGSTSGSLFGPSSFTAAPTGTTIKFNPPTGTDTMVKAGVSTNISTKHQCITAMKEYESKSLEELRLEDYQANRKGPQNQVGAGTTTGLFGSSPATSSATGLFSSSTTNSGFAYGQNKTAFGTSTTGFGTNPGGLFGQQNQQTTSLFSKPFGQATTTQNTGFSFGNTSTIGQPSTNTMGLFGVTQASQPGGLFGTATNTSTGTAFGTGTGLFGQTNTGFGAVGSTLFGNNKLTTFGSSTTSAPSFGTTSGGLFGNKPTLTLGTNTNTSNFGFGTNTSGNSIFGSKPAPGTLGTGLGAGFGTALGAGQASLFGNNQPKIGGPLGTGAFGAPGFNTTTATLGFGAPQAPVALTDPNASAAQQAVLQQHINSLTYSPFGDSPLFRNPMSDPKKKEERLKPTNPAAQKALTTPTHYKLTPRPATRVRPKALQTTGTAKSHLFDGLDDDEPSLANGAFMPKKSIKKLVLKNLNNSNLFSPVNRDSENLASPSEYPENGERFSFLSKPVDENHQQDGDEDSLVSHFYTNPIAKPIPQTPESAGNKHSNSNSVDDTIVALNMRAALRNGLEGSSEETSFHDESLQDDREEIENNSYHMHPAGIILTKVGYYTIPSMDDLAKITNEKGECIVSDFTIGRKGYGSIYFEGDVNLTNLNLDDIVHIRRKEVVVYLDDNQKPPVGEGLNRKAEVTLDGVWPTDKTSRCLIKSPDRLADINYEGRLEAVSRKQGAQFKEYRPETGSWVFKVSHF
